Values joined by “and” are separate entries in the source; they are usually repeats but may differ in a detail not shown here. Equal entries are not always repeated.
Target: the molecule itself
Assay: SEC; Superose 6 Increase 3.2/300; freshly purified recombinant protein concentrated up to 1 mg/ml; absorbance at 280 nm

B1: recombinant BAZ2AN (domain or fragment, UniProt Q91YE5 1-744, looked up)
chain: MEMEANDHFNFTGLPPAPAASGLKPSPSSGEGLYTNGSPMNFPQQGKSLNGDVNVNGLSTVSHTTTSGILNSAPHSSSTSHLHHPNVAYDCLWNYSQYPSANPGNNLKDPPLLSQFPGGQYPLNGILGGNRQPSSPSHNTNLRAGSQEFWANGTQSPMGLNFDSQELYDSFPDQNFEVMPNGPPSFFTSPQTSPMLGSSIQTFAPSQDVSSDIHPDEAAEKELTSVVAENGTGLVGSLELEEEQPELKMCGYNGSVSSVESLHQEVSVLVPDPTVSCLDDPSHLPDQLEDTPILSEDSLEPFDSLAAEPVSGSLYGIDDAELMGAEDKLPLEGNPVISALDCPALSNANAFSLLADDSQTSASIFVSPTSPPVLGESVLQDNSFGLNSCSDSEQEEIETQSSNFQRPLTEPAPDQPPSTQLHPAVSPTASPAASLTASAEISPAVSPVASSPVPPEVFVAVSPASSPALPAISLEASMTTPVTSPQGSPEPSPAAAFQTVSPARKNVSSAPKARADREETTGGAVAVSGSGDVLKRRIATPEEVRLPLQHGWRREVRIKKGSHRWQGETWYYGPCGKRMKQFPEVIKYLSRNVVHSVRREHFSFSPRMPVGDFFEERDTPEGLQWVQLSAEEIPSRIQAITGKRGRPRNNEKAKNKEVPKVKRGRGRPPKIKMPELLNKTDNRLPKKLETQEILSEDDKAKMTKNKKKMRQKVQRGESQTPVQGQARNKRKQDTKSLKQKDTKK
notes: BAZ2A (TIP5) N-terminal region, aa 1-744; also called BAZ2AN-Hist; source: E. coli BL21(DE3), purified (Glutathione Sepharose, PreScission cleavage, HisTrap)
- stoichiometry N: 4 units and 6 units

Reference: publication PMC11065421, “An RNA-dependent and phase-separated active subnuclear compartment safeguards repressive chromatin domains” (Molecular Cell, 2024)
